From patent US20140018297A1 (Novo Nordisk, published 2014)

T1: FVIII (N8, turoctocog alfa), B domain truncated FVIII (human, UniProt P00451 20-2351)
T1 construct: also called F8; F8-500
T1 sequence: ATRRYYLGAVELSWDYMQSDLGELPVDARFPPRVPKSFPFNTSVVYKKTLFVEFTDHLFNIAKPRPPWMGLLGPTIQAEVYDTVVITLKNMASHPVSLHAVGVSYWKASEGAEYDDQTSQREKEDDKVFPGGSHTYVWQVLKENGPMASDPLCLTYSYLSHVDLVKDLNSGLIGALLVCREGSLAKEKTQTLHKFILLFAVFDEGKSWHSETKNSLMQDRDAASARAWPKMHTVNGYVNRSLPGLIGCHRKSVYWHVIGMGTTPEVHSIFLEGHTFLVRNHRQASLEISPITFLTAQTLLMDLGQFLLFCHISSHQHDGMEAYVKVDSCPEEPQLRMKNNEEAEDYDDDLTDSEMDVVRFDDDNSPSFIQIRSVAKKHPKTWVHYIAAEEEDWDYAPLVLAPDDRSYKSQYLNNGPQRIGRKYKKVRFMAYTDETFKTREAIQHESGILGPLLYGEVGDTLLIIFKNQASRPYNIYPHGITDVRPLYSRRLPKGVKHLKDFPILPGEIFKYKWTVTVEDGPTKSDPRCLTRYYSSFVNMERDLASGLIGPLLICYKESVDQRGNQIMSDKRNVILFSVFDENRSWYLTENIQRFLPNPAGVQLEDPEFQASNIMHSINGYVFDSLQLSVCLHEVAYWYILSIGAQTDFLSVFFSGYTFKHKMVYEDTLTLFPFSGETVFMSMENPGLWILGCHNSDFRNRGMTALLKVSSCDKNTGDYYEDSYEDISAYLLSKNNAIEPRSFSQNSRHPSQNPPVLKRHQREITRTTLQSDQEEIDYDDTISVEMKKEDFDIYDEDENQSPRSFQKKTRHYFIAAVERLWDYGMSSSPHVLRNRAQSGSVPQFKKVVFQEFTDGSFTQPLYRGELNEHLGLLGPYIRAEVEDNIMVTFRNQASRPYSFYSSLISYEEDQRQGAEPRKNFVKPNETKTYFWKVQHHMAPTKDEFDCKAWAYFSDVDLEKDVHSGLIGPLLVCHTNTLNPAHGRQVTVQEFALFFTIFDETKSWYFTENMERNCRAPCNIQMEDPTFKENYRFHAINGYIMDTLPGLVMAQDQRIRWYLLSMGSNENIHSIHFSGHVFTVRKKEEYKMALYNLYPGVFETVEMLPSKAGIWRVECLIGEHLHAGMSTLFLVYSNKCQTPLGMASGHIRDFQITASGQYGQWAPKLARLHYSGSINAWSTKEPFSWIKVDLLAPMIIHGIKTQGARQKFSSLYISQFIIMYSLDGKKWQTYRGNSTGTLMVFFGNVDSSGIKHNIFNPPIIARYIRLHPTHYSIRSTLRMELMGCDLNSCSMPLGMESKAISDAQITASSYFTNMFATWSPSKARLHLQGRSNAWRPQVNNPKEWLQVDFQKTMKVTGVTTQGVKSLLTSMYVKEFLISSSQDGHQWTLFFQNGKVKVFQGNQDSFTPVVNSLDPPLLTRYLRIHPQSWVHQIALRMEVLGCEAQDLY

T2: FVIII (as used in the competition ELISA of Example 21; form not stated) (UniProt P00451 20-2351, limits assumed)
T2 sequence (looked up): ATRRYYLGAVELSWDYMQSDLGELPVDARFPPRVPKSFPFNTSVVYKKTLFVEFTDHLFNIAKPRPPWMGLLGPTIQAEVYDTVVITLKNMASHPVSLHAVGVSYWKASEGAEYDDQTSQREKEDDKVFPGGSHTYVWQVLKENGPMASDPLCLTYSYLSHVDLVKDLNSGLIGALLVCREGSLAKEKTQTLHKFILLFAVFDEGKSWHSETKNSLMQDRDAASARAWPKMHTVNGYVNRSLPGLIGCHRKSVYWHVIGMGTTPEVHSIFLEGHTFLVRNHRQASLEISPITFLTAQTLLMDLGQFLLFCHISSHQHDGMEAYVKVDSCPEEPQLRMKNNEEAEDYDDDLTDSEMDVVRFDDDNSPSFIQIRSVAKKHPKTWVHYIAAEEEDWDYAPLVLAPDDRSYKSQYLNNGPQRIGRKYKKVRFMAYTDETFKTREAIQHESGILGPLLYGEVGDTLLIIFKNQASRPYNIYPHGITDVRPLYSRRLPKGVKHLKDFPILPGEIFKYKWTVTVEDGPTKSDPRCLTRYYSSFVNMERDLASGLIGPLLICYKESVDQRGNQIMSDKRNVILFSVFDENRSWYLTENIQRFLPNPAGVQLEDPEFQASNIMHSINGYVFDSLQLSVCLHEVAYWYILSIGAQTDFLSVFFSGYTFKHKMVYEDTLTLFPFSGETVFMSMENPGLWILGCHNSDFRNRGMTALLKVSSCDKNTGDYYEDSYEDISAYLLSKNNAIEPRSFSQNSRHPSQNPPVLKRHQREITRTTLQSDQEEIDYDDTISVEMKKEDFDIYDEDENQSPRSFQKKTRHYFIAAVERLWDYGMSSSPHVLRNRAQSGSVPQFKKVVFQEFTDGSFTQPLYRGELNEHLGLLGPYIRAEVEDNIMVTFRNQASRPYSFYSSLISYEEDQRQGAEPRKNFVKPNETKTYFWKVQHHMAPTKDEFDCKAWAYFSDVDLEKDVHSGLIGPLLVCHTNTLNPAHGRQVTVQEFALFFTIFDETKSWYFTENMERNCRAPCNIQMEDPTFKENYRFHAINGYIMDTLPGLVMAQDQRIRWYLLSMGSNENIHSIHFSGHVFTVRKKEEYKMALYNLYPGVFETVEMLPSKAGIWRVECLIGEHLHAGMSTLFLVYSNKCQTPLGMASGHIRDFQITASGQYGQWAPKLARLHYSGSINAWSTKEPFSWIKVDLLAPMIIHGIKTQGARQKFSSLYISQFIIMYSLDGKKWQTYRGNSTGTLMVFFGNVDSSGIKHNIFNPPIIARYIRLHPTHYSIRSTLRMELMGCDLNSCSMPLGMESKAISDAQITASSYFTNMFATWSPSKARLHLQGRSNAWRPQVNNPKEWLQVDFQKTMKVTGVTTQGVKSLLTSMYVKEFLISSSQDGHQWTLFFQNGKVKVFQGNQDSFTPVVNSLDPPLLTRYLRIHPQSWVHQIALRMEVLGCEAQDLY


How the values were obtained:
[1] = molecular target: T1, FVIII (N8, turoctocog alfa), B domain …; test: SEC-UV (280 nm), Waters Biosuite 4.6x300 mm, 0.3 ml/min, 155 mM NaCl, 10 mM calcium acetate, 10% isopropanol, 25 °C; FVIII 10 µM, fragment 20 µM, 1:2 mixture
Procedure: Size-exclusion chromatography was performed on a Waters Biosuite 4.6×300 mm column using a flow rate of 0.3 ml/min and a running buffer of 155 mM NaCl, 10 mM Calciumacetat, 10% Isopropanol at 25° C. The absorbance of the effluent was monitored by a UV detector at 280 nm. SEC-UV characterization were performed of FVIII, TIL′/E′/D3/A1 III, TIL′/E′/D3 II, and 1:2 complexes of FVIII—TIL′/E′/D3/A1 III and of FVIII—TIL′/E′/D3 II. Samples of FVIII 10 μM, TIL′/E′/D3/A1 III 20 μM, TIL′/E′/D3 II 20 μM, and in complex were prepared and 15 μL were loaded on to the column.

[2] = molecular target: T1, FVIII (N8, turoctocog alfa), B domain …; test: isothermal titration calorimetry at 20° C., VWF variant injected into FVIII
Procedure: (§1) All protein samples are dialyzed in 50 mM Hepes pH 7.4, 150 mM NaCl, 10 mM CaCl₂ buffer. Each iTC experiment involves filling the iTC cell with FVIII (approximately 250 μL) and the syringe with VWF variants (approximately 40 μL). Temperature is set as required and the protein sample is allowed to equilibrate under given experimental conditions (approximately 10 minutes). Typically 17-20 injections (of 2-2.5 μL) of VWF variants into cell, containing FVIII, are performed. The first injection is always of 0.2 μL and is discarded from the final data analysis in order to account for diffusion during equilibration step. Stirring speed is set between 700-1000 rpm. Filter period for data collection is 5 sec with a high feedback mode setting. Each titration is spaced by 120 sec. Appropriate control experiments are performed. Raw data is processed to set baseline and integrated to obtain a final isotherm. This binding isotherm is fit to a single-site model to yield Kd, stoichiometry (n), ΔH, and ΔS values to complete characterization of VWF variant binding to FVIII.

[3] = molecular target: T1, FVIII (N8, turoctocog alfa), B domain …; test: isothermal titration calorimetry at 20° C., VWF variant injected into FVIII; ITC at 20° C.
Procedure: as §1

[4] = molecular target: T2, FVIII (as used in the competition ELISA …); test: competition ELISA; competitor coated human VWF; FVIII 1 nM pre-incubated with the fragment
Procedure: In order to investigate the binding of the different VWF fragments to FVIII the following method is used. Briefly, human VWF is coated in a microtiterplate and incubated overnight at 4° C. After blocking, a solution with pre-incubated FVIII (1 nM) and VWF/VWF-fragment is added to the plate, followed by detection with biotinylated anti FVIII antibody and streptavidin-peroxidase S-POD (1:20000). The absorbance is measured at 450/620 nm.

[5] = molecular target: T1, FVIII (N8, turoctocog alfa), B domain …; test: Isothermal titration calorimetry at 20 °C, VWF fragment in the syringe titrated into FVIII (turoctocog alfa) in the cell, single-site fit; 50 mM Hepes pH 7.4, 150 mM NaCl, 10 mM CaCl2
Procedure: as §1

Binder | binding result [1] | stoichiometry [2] | ΔH [2] | ΔS [2] | Kd [3] | IC50 [4] | Ka [5]
VWF(764-1261)-C1099/1142S-ALA-HPC4 monomer (other, also called 2309; TIL′/E′/D3 II) SLSCRPPMVKLVCPADNLRAEGLECTKTCQNYDLECMSMGCVSGCLCPPGMVRHENRCVALERCPCFHQGKEYAPGETVKIGCNTCVCQDRKWNCTDHVCDATCSTIGMAHYLTFDGLKYLFPGECQYVLVQDYCGSNPGTFRILVGNKGCSHPSVKCKKRVTILVEGGEIELFDGEVNVKRPMKDETHFEVVESGRYIILLLGKALSVVWDRHLSISVVLKQTYQEKVCGLCGNFDGIQNNDLTSSNLQVEEDPVDFGNSWKVSSQCADTRKVPLDSSPATCHNNIMKQTMVDSSCRILTSDVFQDCNKLVDPEPYLDVCIYDTCSCESIGDCASFCDTIAAYAHVCAQHGKVVTWRTATLCPQSCEERNLRENGYESEWRYNSCAPACQVTCQHPEPLACPVQCVEGCHAHCPPGKILDELLQTCVDPEDCPVCEVAGRRFASGKKVTLNPSDPEHCQICHCDVVNLTCEACQEPGGLVVPPTDAPVSPTTLYVEDALAEDQVDPRLIDGK | binds | – | – | – | – | – | –
VWF(764-865)-ALA-HPC4 monomer (other, also called TIL′E′) SLSCRPPMVKLVCPADNLRAEGLECTKTCQNYDLECMSMGCVSGCLCPPGMVRHENRCVALERCPCFHQGKEYAPGETVKIGCNTCVCQDRKWNCTDHVCDAALAEDQVDPRLIDGK | – | 1.14 | -5.82 kcal/mol | 9.8 cal/mol/deg | 330 nM | 2000 nM | 3.02e+06 M⁻¹
